Blank lines part the entries; values can stand above or below the molecule they belong to.
Columns and labels:
[1] = molecular target: CvkR (Cas V-K repressor, Alr3614) of Anabaena (Nostoc) sp. PCC 7120 (Anabaena (Nostoc) sp. PCC 7120); assay: SEC
CvkR (Alr3614) = CvkR (Alr3614) (Anabaena (Nostoc) sp. PCC 7120, UniProt A0ACD6B984 19-168); assay: EMSA

stoichiometry N [1]: 2
Molecule: CvkR (Cas V-K repressor, Alr3614) of Anabaena (Nostoc) sp. PCC 7120 (natural protein)

B1: Pcas12k (P82) (dsDNA)
DNA 1: AAGAAACATCCTATAGAAGCATCTTCTAAAACACATTAGTGCTTTGTATAACATTATGTGTTTTGTATGGTATTTTATTTTT
DNA 2: AAAAATAAAATACCATACAAAACACATAATGTTATACAAAGCACTAATGTGTTTTAGAAGATGCTTCTATAGGATGTTTCTT
binding result (CvkR (Alr3614)): binds

Reference: article doi:10.1101/2022.05.13.491168
